In patent US20240293465A1:

B1: bovine FXa (activated bovine clotting factor X) (protein)
chain: ANSFLEEVKQGNLERECLEEACSLEEAREVFEDAEQTDEFWSKYKDGDQCEGHPCLNQGHCKDGIGDYTCTCAEGFEGKNCEFSTREICSLDNGGCDQFCREERSEVRCSCAHGYVLGDDSKSCVSTERFPCGKFTQGRSRRWAIHTSEDALDASELEHYDPADLSPTESSLDLLGLNRTEPSAGEDGSQVVRIVGGRDCAEGECPWQALLVNEENEGFCGGTILNEFYVLTAAHCLHQAKRFTVRVGDRNTEQEEGNEMAHEVEMTVKHSRFVKETYDFDIAVLRLKTPIRFRRNVAPACLPEKDWAEATLMTQKTGIVSGFGRTHEKGRLSSTLKMLEVPYVDRSTCKLSSSFTITPNMFCAGYDTQPEDACQGDSGGPHVTRFKDTYFVTGIVSWGEGCARKGKFGVYTKVSNFLKWIDKIMKARAGAAGSRGHSEAPATWTVPPPLPL

What was measured:
[1] = biological target: human C3 (UniProt P01024)
[2] = biological target: human C3, P01024
Sequence of human C3, P01024 (P01024 whole entry, looked up): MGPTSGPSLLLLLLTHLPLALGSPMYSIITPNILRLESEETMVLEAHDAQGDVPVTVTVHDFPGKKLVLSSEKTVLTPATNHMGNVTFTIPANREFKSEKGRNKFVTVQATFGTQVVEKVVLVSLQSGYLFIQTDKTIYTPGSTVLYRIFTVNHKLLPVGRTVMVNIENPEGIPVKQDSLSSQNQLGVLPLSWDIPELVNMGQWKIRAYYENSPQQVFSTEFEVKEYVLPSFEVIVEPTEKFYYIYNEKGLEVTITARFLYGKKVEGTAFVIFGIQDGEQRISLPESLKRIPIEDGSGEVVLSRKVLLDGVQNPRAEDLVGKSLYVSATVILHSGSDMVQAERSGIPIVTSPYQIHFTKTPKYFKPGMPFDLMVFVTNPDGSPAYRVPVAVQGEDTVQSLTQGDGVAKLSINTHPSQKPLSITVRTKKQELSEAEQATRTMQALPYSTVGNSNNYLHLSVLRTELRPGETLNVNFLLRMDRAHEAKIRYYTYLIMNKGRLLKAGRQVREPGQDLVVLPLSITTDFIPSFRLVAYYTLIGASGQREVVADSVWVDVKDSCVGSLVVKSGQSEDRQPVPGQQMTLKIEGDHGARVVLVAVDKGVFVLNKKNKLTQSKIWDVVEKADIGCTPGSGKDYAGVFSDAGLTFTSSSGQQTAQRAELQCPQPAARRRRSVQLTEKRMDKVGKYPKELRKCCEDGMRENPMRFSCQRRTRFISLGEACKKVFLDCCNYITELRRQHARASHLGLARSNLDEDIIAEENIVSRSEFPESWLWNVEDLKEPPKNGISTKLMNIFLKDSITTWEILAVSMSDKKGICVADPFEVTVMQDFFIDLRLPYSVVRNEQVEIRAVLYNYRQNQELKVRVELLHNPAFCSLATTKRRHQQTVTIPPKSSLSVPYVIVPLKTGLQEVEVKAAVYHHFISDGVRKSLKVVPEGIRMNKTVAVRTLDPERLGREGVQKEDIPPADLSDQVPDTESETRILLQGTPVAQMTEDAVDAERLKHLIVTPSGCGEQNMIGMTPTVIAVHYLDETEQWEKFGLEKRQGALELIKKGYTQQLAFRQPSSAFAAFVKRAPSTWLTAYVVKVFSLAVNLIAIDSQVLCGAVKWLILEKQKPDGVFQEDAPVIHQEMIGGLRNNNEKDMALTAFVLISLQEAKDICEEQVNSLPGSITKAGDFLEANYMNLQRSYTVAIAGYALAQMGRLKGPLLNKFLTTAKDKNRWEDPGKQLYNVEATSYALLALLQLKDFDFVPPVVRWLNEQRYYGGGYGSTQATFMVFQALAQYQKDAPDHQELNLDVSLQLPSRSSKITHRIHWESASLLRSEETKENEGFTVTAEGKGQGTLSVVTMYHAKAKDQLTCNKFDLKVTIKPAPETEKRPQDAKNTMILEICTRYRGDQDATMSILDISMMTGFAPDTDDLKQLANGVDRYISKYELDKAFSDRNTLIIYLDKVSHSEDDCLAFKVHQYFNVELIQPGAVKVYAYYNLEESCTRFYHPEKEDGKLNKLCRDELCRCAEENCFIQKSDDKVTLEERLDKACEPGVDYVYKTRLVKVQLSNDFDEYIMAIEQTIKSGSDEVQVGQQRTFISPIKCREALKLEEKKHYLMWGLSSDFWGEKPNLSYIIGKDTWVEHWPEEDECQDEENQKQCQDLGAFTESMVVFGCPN

Molecule | cleavage of the C3 alpha chain to the a' chain (Western blot) [1] | cleavage of the C3 alpha chain to the a' chain (Western blot) [2]
human FCXIa (activated form of human clotting factor XI) | can cleave C3 in vitro in the absence of any complement proteases | 
human FXa (activated form of human clotting factor X) | can cleave C3 in vitro in the absence of any complement proteases | 
B1 |  | can cleave C3 in vitro in the absence of any complement proteases
